The target in this assay is T1, MBP-BIN2 (Arabidopsis thaliana, UniProt Q39011 1-380).
T1 construct: also called BIN2-MBP; source: E. coli strain Transetta-DE3, purified
T1 sequence (looked up): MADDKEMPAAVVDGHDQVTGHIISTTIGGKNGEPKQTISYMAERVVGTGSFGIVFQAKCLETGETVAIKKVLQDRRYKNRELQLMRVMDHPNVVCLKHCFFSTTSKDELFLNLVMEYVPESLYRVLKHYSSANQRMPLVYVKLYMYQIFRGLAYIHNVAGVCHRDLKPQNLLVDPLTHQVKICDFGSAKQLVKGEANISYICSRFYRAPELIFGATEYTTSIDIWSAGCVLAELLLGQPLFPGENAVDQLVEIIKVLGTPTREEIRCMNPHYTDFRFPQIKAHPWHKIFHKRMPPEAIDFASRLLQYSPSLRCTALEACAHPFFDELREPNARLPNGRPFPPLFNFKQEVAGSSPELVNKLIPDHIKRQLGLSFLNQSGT
Put plainly: pull-down; MBP pull-down on amylose resin; purified GST-CO incubated with MBP or MBP-BIN2 overnight at 4°C; 20 mM Tris pH 8.0, NaCl, 1 mM EDTA; immunoblot with anti-MBP and anti-GST. Conditions: both partners purified.

B1: GST-CO (natural protein, Arabidopsis thaliana, UniProt Q39057 1-373, looked up)
chain: MLKQESNDIGSGENNRARPCDTCRSNACTVYCHADSAYLCMSCDAQVHSANRVASRHKRVRVCESCERAPAAFLCEADDASLCTACDSEVHSANPLARRHQRVPILPISGNSFSSMTTTHHQSEKTMTDPEKRLVVDQEEGEEGDKDAKEVASWLFPNSDKNNNNQNNGLLFSDEYLNLVDYNSSMDYKFTGEYSQHQQNCSVPQTSYGGDRVVPLKLEESRGHQCHNQQNFQFNIKYGSSGTHYNDNGSINHNAYISSMETGVVPESTACVTTASHPRTPKGTVEQQPDPASQMITVTQLSPMDREARVLRYREKRKTRKFEKTIRYASRKAYAEIRPRVNGRFAKREIEAEEQGFNTMLMYNTGYGIVPSF
notes: also called CO-GST; source: E. coli strain Transetta-DE3, purified
Regarding B1, the binding result was “binds”.

The values above are taken from publication PMC9923014, “BIN2 phosphorylates the Thr280 of CO to restrict its function in promoting Arabidopsis flowering” (Frontiers in Plant Science, 2023).
